assay: soluble on expression in E. coli; label from the status in PepcDB or PDB records

Question: With “MFDPREKIALFIDGANLYAASKSLGFDIDYRKLLKAFQKRGYLLRAYYYTALIEDQEYSSIRPLIDWLDYNGYKVVTKPAKEFTDSLGRRKIKGNMDIELAIDAMEQSESVDHLVIFSGDGDFTTLVEALQRKGRKVSVVSTMSTQPPMIADDLRRQADHFIDLATLRGEIGREPSERVQRPVEPVADDVEL” as the sequence, how does the “soluble on expression in E. coli” value read?
Answer: not soluble

Question: Which “soluble on expression in E. coli” value does the source give for “MFDVVAVGELLIDFLPAGTNENGMPLFSSNPGGAPANVLAMLSKLGAKTAFIGKVGKDGFGQFLKATLDNAGIDTSNLLMSSSEMTTLAFVHLNEKGDRSFSFYRKHCADVSLDAGELDKDLLRTCHFLHFGAVSLTDEPSRTATLEAARIAKEAGAIISYDPNYRPALWSNEHEARKYMLKAVEYADLVKVSEEELWLLAESEDFSKGAHKLLAMGPSVVFVTCGEKGSYVFTGSCKANHCGYDVKVVDTTGAGDAFVGAMLWQLRGMSLEEISQICEQKWGELLAFSNAAGTIVATKKGAIPAMPDLDTINTFMRQFLEEK” here?
Answer: soluble

Question: With “MFDYTDFPEQRQSKIRLILSEEGKVVCTQLSRELNVSEHTIRRDLKELAQSGACKRVYGGAVSLPPEAIDFASRATIDAAQKDRIAQAVIPLIKPNGCVFFDTGTTNLAVAKQIPAGLKFTAVCNSPIIAAELMQHQDVEVIVLGGRIQKEVGGAIGIDTLRQLEKMYFDQCLLGGCAFDANEGLTVFEYDDAEFKKCLVTRSSEVIVALTANKISALTRYRVAECDEITTLVTDDEISPASQSVLKEKNLDVIIARLEHHHHHH” as the sequence, how does the “soluble on expression in E. coli” value read?
Answer: soluble

Question: Which “soluble on expression in E. coli” value does the source give for “MFFKQFYEDNFSQASYLIGCQRTGEAMIIDPIRDLTKYLKVADKEGFTITKAAETHIHADFASGIRDVANKLNASIYVSDEGKDEFNYKNMPKQTHFVKHQDIIYLGKIKLEVLHTPGHPPESISFLLTDEGGGSSIPMGLFSGDFIFVGDVGRPDLLEKAVNVEGSTKIGAKQMYQSIQFAATLPDYIQIWPGHGAGSPCGKALGSLPTTTLGYEKINNWAFNVKDETSFIETLTLNQPAPPHHFSQMKKINQFGMQMYQPYNVYPSSSNTQTAFDLRSKEAFHGGHMHGTINIPFNKTFINQIGWYLDYDLEHHHHHH” here?
Answer: soluble

Question: For “MFGKYKVSVIIPAYNEEKRIGNVLARIPDFVDEVIVIDDGSSDATYEVAKRYTDKAIRLNKNMGKGAALREGLRHASGDIIVFMDADGQHNPKEIPKLLEPIIKGKADFVIGKRIIKTGKRPLPRKLSNFITTTLIRLKTKQRIEDSQSGFRAIRREFVPEITSDRYEVETEVLIKAVKKGARITEVPVSTRYDLKTGKFRVEDIIRFLIALIKSLEHHHHHH”, which “soluble on expression in E. coli” value is on record?
Answer: not soluble

Question: With “MFGLVDAVSFYARAEKVFDPSIRHKPVVVLTNNDGCICAVCPIARQLGVPKFVPYFKVKSFLAKHGVVVRSSNYELYADLSERMMNVIARYSDNHYVYSIDESFLHFKNFSCVDNWHEYGHVIRKAVWRETRLPVGVGFGATLTLAKAANHASKKLSGFDGVAVIDDKASRKEILSRMSLTEVWGIGSKLGKRLSILGLKNGWDLANQSPKAMRGQFGVVVERTVNELNGMPCLQWDEIGQDKQEIFSTRSFGQRVTDGHALKAALSSHASIVGAKVRRQGSLIKRLVIFASSSPHDDSYYKKSVIYEFPIATDNILKLVGAISYVFDNIYRQGVSFYRCGVGGVELENSQFQQQDMFSLSVNNPPLMKCYDQINHRYGRGAVEVAIAEKNEKWAMRRNFLSPRSTSNWSEIPKINCLEHHHHHH” as the sequence, how does the “soluble on expression in E. coli” value read?
Answer: not soluble

Question: For “MFIPSIYLHQQLHYCKTAILNWSRKMALSRQKFTFERLRRFTLPEGKKQTFLWDADVTTLACRATSGAKAFVFQSVYAGKTLRMTIGNINDWKIDDARAEARRLQTLIDTGIDPRIAKAVKIAEAESLQAESRKTKVTFSVAWEDYLQELRTGISAKTKRPYSTRYIADHINLSSRGGESKKRGQGPTSAGPLASLLNLPLSELTPDYIAAWLSTERQNRPTVTAHAYRLLRAFIKWSNYQKKYQGIIPGDLAQDYNVRKMVPVSASKADDCLQKEQLKSWFSAVRSLNNPIASAYLQVLLLTGARREEIASLRWSDVDFKWSSMRIKDKIEGERIIPLTPYVSELLNVLAQSPNSDVNKEGWVFRSNSKSGKIIEPRSAHNRALVLAELPHISLHGLRRSFGTLAEWVEVPTGIVAQIMGHKPSALAEKHYRRRPLDLLRKWHEKIETWILNEAGITIKNNVDMR”, which “soluble on expression in E. coli” value is on record?
Answer: soluble

Question: Which “soluble on expression in E. coli” value does the source give for “MFIPVIMAGGSGSRLWPLSRSAFPKQFLSLDSSSQHTMLQATIERLQGLPIAEPIVISNEDHRFIVAEQIRRYGKKSRIILEPAGRNTAPAIALAAFTAIEQEDDPVLLVLAADHFVKNKSAFQAAISQAAQQAEAGKLATFGIVPTTPETGYGYIHRGEEVTQGTYEINSFVEKPQLNIAEQYLASGEYYWNSGCFMFKASVFLNELKQHSPEIYRQCELAMQGLSHDYDFIRVGVEEFLKCPDDSIDYAVMEHTKLGVVVSMDAGWSDVGSWSALWEVSDKDADGNVCQGDAILSGTSNCYIYAPNKLVAAVGLKDIVVVETKDAVLVADKNQVQEVKKIVEHLKAENRAEYREHRERYRPWGKSDAIDKGERYKVNRITVEPGKKQSLQMHYHRAEHWVVVSGTAKVTCEGNVKVITENQSLYIPIGTNHMIENPGKIPLELIEIQSGSYLNEDDVVRFEDK” here?
Answer: not soluble

Question: For “MFIVLNAPVRGRYCAPMTQFASPVLHSLLDTDAYKLHMQQAVFHHYYDVHVAAEFRCRGDDLLGIYADAIREQIQAMQHLRLQDDEYQWLSALPFFKADYLNWLREFRFNPEQVTVSNDNGKLDIRLSGPWREVILWEVPLLAVISEMVHRYRSPQADVAQALDTLESKLVDFSALTAGLDMSRFHLMDFGTRRRFSREVQETIVKRLQQESWFVGTSNYDLARRLSLTPMGTQAHEWFQAHQQISPDLANSQRAALAAWLEEYPDQLGIALTDCITMDAFLRDFGVEFASRYQGLRHDSGDPVEWGEKAIAHYEKLGIDPQSKTLVFSDNLDLRKAVELYRHFSSRVQLSFGIGTRLTCDIPQVKPLNIVIKLVECNGKPVAKLSDSPGKTICHDKAFVRALRKAFDLPHIKKASMAGDPLEHHHHHH”, which “soluble on expression in E. coli” value is on record?
Answer: not soluble

Question: For “MFKAIVSAATLRDALDSVSVLVDECKIRLNEESLSIRAVDPANVGMVDLTLDAAAFESYEAHGGVIGVNLSRLEEVAGMAGAGDLIHLTLDEETRKLNIRIDGLSYTLALIDPDSIRQEPDIPDLDLAANIVLEGTHLDRGIKAADMVSDHIRLRVDGAEETFHIEAEGDTDDVDLSLPPADLISIEAGAADSLFSLDYLKDMNKAIPTDAEVTVELGEEFPVKLHYQIAEGMGTITYMLAPRIQSD”, which “soluble on expression in E. coli” value is on record?
Answer: soluble

Question: For “MFKRETKDFINIDPLQTGGKLTEEARQALLEWGDGYSVCDFCTTGRLDEIKTPPIHDFIHNQLPKFLGCDVARVTNGAREAKFAVMHSLAKKDAWVVMDENCHYSSYVAAERAGLNIALVPKTDYPDYAITPENFAQTIEETKKRGEVVLALITYPDGNYGNLPDVKKIAKVCSEYDVPLLVNGAYAIGRMPVSLKEIGADFIVGSGHKSMAASGPIGVMGMKEEWAEIVLRRSEKYKNKEVELLGCTARGATIITLMASFPHVRERIKRWDEEVEKARRFAAEMEKLGIKQLGDNPHNHDLMFFHAEVLYEISKKAKGGRFFLYRELKSRKIHGIKPGLTRYFKLSTYGLSDEEVDYVLNAFKEIIEKYS”, which “soluble on expression in E. coli” value is on record?
Answer: soluble

Question: With “MFLPKFNPIRSFSPILRAKTLLRYQNRMYLSTEIRKAIEDAIESAPVVLFMKGTPEFPKCGFSRATIGLLGNQGVDPAKFAAYNVLEDPELREGIKEFSEWPTIPQLYVNKEFIGGCDVITSMARSGELADLLEEAQALVPEEEEETKDR” as the sequence, how does the “soluble on expression in E. coli” value read?
Answer: soluble

Question: For “MFLRLFKYLWPERYLPEIPAQDPFDENPPPCGPGRVGVLLVNLGTPDEPTRGAIRRYLGEFLSDPRVIEIPRYLWMPILHGLVLAMRPKKLAPRYAGIWMEEGSPLLVYSQRQAAGVRQGLAARGVHAEVELAMRYGKPSIPAAITALRERGCDHILAVPLYPQYAASTTATVVDAVTRHAGRLRDQPALRFVKRFHNDPAYVEAQAGRIAEFWQAHGRPQKLVMSFHGLPRYSIELGDPYYRDCLDTARLLRERLGLREDEVEVTFQSRFGSARWLEPYTEPTLAELARQGVTEVDVVCPGFVADCLETLEEISQECRDAFVAAGGRQFRYIPALNDCPPWIEGLTDLVERQLRGWPTGNP”, which “soluble on expression in E. coli” value is on record?
Answer: not soluble

— the DeepSol protein solubility set
